Test results: patent US20150239933A1
Several values for one entry are separate records, joined by “and”; a condition that tells them apart may be missing. Identical values can stand only once.

Tests used:
[1] = target: Porcine tubulin dimer (porcine); assay: SPR Biacore T200, 60 sec injection of 100 nM over immobilised tubulin dimer, reference-subtracted
[2] = target: Porcine tubulin dimer (porcine); assay: SPR Biacore T200, tubulin dimer immobilised, 1:1 model; mean of two experiments
[3] = target: assembled microtubules (containing ~25% of TUBB3) (porcine) (UniProt F1S6M7); assay: SPR Biacore T200, assembled MTs amine-coupled to CM5, gp120 3.13-100 nM as analyte, 1:1 model; one of two experiments
[4] = target: assembled microtubules (containing ~25% of TUBB3) (porcine) (UniProt F1S6M7); assay: SPR Biacore T200, 60 sec injection of 100 nM over immobilised microtubules, reference-subtracted
[5] = target: Human recombinant TUBB3 (human) (UniProt Q13509); assay: SPR Biacore T200, 60 sec injection of 100 nM over immobilised tubulin β-3, reference-subtracted
Chain of Human recombinant TUBB3 (human) (Q13509 whole entry): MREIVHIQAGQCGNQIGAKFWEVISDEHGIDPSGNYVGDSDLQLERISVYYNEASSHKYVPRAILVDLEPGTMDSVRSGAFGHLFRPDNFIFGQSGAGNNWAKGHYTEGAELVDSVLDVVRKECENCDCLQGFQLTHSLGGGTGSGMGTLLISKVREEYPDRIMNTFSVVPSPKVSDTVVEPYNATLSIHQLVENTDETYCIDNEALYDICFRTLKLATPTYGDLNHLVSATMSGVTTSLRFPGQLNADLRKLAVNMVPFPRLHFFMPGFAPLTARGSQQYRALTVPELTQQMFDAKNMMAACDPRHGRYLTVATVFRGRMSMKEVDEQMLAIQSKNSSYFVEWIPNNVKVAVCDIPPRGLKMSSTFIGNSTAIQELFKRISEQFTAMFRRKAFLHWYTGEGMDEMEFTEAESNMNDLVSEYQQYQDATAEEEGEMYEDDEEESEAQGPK

[6] = target: assembled microtubules (containing ~25% of TUBB3) (porcine) (UniProt F1S6M7); assay: SPR Biacore T200, assembled MTs immobilised, 1:1 model; mean of two experiments
[7] = target: Porcine tubulin dimer (porcine); assay: SPR Biacore T200, tubulin dimer amine-coupled to CM5, gp120 3.13-100 nM as analyte, 1:1 model; one of two experiments
[8] = target: Human recombinant TUBB3 (human) (UniProt Q13509); assay: SPR Biacore T200, TUBB3 immobilised, 1:1 model; mean of two experiments
[9] = target: Human recombinant TUBB3 (human) (UniProt Q13509); assay: SPR Biacore T200, TUBB3 amine-coupled to CM5, gp120 3.13-100 nM as analyte, 1:1 model; one of two experiments

Row | Substance | response (3-1) RU [1] | Kd [2] | Kd [3] | response (4-1) RU [4] | response (2-1) RU [5] | Kd [6] | Kd [7] | Kd [8] | Kd [9]
1 | gp120IIIB (from UniProt P04578 33-511) | 14 RU and 18.6 RU and 21 RU | 12.3 nM | 1.16 nM and 8.46 nM | 15 RU and 23.2 RU and 19 RU | 35 RU and 44 RU | 10 nM | 1.69 nM and 7.68 nM |  | 
2 | gp120ADA |  | 11.2 nM | 5.62 nM and 1.83 nM |  |  | 12 nM | 5.4 nM and 1.71 nM | 10.3 nM | 5.48 nM and 15.2 nM
